Source: IntAct's records for PubMed 22902367

B1: Nectin-1 (Homo sapiens), Q15223 (parent)
chain: MARMGLAGAAGRWWGLALGLTAFFLPGVHSQVVQVNDSMYGFIGTDVVLHCSFANPLPSVKITQVTWQKSTNGSKQNVAIYNPSMGVSVLAPYRERVEFLRPSFTDGTIRLSRLELEDEGVYICEFATFPTGNRESQLNLTVMAKPTNWIEGTQAVLRAKKGQDDKVLVATCTSANGKPPSVVSWETRLKGEAEYQEIRNPNGTVTVISRYRLVPSREAHQQSLACIVNYHMDRFKESLTLNVQYEPEVTIEGFDGNWYLQRMDVKLTCKADANPPATEYHWTTLNGSLPKGVEAQNRTLFFKGPINYSLAGTYICEATNPIGTRSGQVEVNITEFPYTPSPPEHGRRAGPVPTAIIGGVAGSILLVLIVVGGIVVALRRRRHTFKGDYSTKKHVYGNGYSKAGIPQHHPPMAQNLQYPDDSDDEKKAGPLGGSSYEEEEEEEEGGGGGERKVGGPHPKYDEDAKRPYFTVDEAEARQDGYGDRTLGYQYDPEQLDLAENMVSQNDGSFISKKEWYV

Variants of: B1
Conditions: with NECTIN3, Q9NQS3-1
Sequence of NECTIN3, Q9NQS3-1 (Q9NQS3 whole entry, looked up): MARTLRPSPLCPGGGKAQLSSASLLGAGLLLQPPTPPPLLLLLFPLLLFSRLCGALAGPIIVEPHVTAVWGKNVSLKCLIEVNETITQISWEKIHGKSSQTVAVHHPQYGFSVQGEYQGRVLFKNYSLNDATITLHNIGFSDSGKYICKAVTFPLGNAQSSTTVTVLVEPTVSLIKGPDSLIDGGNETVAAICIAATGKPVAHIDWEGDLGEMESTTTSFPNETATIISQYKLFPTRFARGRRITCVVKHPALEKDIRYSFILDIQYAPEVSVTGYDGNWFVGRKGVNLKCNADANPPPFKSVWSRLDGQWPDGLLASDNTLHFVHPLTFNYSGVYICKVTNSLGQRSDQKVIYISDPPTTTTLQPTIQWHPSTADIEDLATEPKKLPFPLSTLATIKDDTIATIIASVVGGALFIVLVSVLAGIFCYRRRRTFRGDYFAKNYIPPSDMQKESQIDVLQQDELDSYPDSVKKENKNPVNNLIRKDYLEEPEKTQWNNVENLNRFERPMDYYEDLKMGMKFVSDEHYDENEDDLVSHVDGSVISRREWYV

effect of a mutation on the interaction	Variant
disrupting interaction strength	MARMGLAGAAGRWWGLALGLTAFFLPGVHSQVVQVNDSMYGFIGTDVVLHCSFANPLPSVKITQVTWQKSTNGSKQNVAIYNPSMGVSVLAPYRERVEFLRPSFTDGTIRLSRLELEDEGVYICEFATDPTGNRESQLNLTVMAKPTNWIEGTQAVLRAKKGQDDKVLVATCTSANGKPPSVVSWETRLKGEAEYQEIRNPNGTVTVISRYRLVPSREAHQQSLACIVNYHMDRFKESLTLNVQYEPEVTIEGFDGNWYLQRMDVKLTCKADANPPATEYHWTTLNGSLPKGVEAQNRTLFFKGPINYSLAGTYICEATNPIGTRSGQVEVNITEFPYTPSPPEHGRRAGPVPTAIIGGVAGSILLVLIVVGGIVVALRRRRHTFKGDYSTKKHVYGNGYSKAGIPQHHPPMAQNLQYPDDSDDEKKAGPLGGSSYEEEEEEEEGGGGGERKVGGPHPKYDEDAKRPYFTVDEAEARQDGYGDRTLGYQYDPEQLDLAENMVSQNDGSFISKKEWYV [F129D]

Variants of: B1
Conditions: with nect4_human NECTIN4, Q96NY8
Sequence of nect4_human NECTIN4, Q96NY8 (Q96NY8 whole entry): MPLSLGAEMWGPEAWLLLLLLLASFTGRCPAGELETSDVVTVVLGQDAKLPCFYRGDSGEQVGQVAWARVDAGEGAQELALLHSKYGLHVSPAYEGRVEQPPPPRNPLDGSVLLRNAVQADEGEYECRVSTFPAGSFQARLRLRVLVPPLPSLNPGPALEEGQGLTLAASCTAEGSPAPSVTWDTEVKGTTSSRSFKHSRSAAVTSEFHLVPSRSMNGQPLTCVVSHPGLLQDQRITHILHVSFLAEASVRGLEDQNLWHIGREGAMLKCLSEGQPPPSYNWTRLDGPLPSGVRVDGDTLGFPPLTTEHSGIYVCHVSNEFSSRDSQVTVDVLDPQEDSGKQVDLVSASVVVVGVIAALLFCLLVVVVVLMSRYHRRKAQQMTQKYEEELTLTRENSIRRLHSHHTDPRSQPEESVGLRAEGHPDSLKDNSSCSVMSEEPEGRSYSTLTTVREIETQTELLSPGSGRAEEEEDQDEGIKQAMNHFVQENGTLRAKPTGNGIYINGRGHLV

effect of a mutation on the interaction	Variant
disrupting interaction strength	MARMGLAGAAGRWWGLALGLTAFFLPGVHSQVVQVNDSMYGFIGTDVVLHCSFANPLPSVKITQVTWQKSTNGSKQNVAIYNPSMGVSVLAPYRERVEFLRPSFTDGTIRLSRLELEDEGVYICEFATDPTGNRESQLNLTVMAKPTNWIEGTQAVLRAKKGQDDKVLVATCTSANGKPPSVVSWETRLKGEAEYQEIRNPNGTVTVISRYRLVPSREAHQQSLACIVNYHMDRFKESLTLNVQYEPEVTIEGFDGNWYLQRMDVKLTCKADANPPATEYHWTTLNGSLPKGVEAQNRTLFFKGPINYSLAGTYICEATNPIGTRSGQVEVNITEFPYTPSPPEHGRRAGPVPTAIIGGVAGSILLVLIVVGGIVVALRRRRHTFKGDYSTKKHVYGNGYSKAGIPQHHPPMAQNLQYPDDSDDEKKAGPLGGSSYEEEEEEEEGGGGGERKVGGPHPKYDEDAKRPYFTVDEAEARQDGYGDRTLGYQYDPEQLDLAENMVSQNDGSFISKKEWYV [F129D]
